Results reported in patent US20100209956.

T1: Lys-plasminogen, P00747
T1 chain: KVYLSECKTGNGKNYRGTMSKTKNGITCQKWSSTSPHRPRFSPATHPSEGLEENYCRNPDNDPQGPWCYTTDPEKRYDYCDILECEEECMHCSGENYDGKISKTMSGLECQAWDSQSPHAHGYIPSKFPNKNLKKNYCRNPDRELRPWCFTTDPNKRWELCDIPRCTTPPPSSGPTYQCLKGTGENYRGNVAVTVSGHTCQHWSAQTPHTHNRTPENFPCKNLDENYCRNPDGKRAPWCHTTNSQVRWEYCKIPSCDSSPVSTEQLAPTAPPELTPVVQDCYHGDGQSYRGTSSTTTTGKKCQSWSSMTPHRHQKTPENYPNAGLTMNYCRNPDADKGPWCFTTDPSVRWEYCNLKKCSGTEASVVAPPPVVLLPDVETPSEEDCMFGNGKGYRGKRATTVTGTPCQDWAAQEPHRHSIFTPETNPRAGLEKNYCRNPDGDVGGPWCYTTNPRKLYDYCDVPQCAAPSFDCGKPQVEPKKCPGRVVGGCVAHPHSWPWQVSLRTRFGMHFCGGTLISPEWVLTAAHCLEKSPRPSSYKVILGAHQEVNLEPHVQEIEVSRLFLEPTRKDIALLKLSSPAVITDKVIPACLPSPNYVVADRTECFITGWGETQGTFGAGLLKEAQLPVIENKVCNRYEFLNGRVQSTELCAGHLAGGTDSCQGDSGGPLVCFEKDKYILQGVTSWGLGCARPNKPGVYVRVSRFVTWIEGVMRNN

B1: tissue-type plasminogen activator (t-PA) (protein)
chain: SYQVICRDEKTQMIYQQHQSWLRPVLRSNRVEYCWCNSGRAQCHSVPVKSCSEPRCFNGGTCQQALYFSDFVCQCPEGFAGKCCEIDTRATCYEDQGISYRGTWSTAESGAECTNWNSSALAQKPYSGRRPDAIRLGLGNHNYCRNPDRDSKPWCYVFKAGKYSSEFCSTPACSEGNSDCYFGNGSAYRGTHSLTESGASCLPWNSMILIGKVYTAQNPSAQALGLGKHNYCRNPDGDAKPWCHVLKNRRLTWEYCDVPSCSTCGLRQYSQPQFRIKGGLFADIASHPWQAAIFAKHRRSPGERFLCGGILISSCWILSAAHCFQERFPPHHLTVILGRTYRVVPGEEEQKFEVEKYIVHKEFDDDTYDNDIALLQLKSDSSRCAQESSVVRTVCLPPADLQLPDWTECELSGYGKHEALSPFYSERLKEAHVRLYPSSRCTSQHLLNRTVTDNMLCAGDTRSGGPQANLHDACQGDSGGPLVCLNDGRMTLVGIISWGLGCGQKDVPGVYTKVTNYLDWIRDNMRP
B2: soluble form of hepsin encompassing the entire extracellular domain (Arg45-Leu417) and a C-terminal His8 tag (protein)
chain 1: RSDQEPLYPVQVSSADARLMVFDKTEGTWRLLCSSRSNARVAGLSCEEMGFLRALTHSELDVRTAGANGTSGFFCVDEGRLPHTQRLLEVISVCDCPRGRFLAAICQDCGRRKLPVDR
chain 2: not shown

Experiments:
Lys-plasminogen, P00747 = biological target: T1, Lys-plasminogen, P00747
[1] = biological target: pro-HGF (single-chain hepatocyte growth factor), P14210
Chain of pro-HGF (single-chain hepatocyte growth factor), P14210 (P14210 32-728): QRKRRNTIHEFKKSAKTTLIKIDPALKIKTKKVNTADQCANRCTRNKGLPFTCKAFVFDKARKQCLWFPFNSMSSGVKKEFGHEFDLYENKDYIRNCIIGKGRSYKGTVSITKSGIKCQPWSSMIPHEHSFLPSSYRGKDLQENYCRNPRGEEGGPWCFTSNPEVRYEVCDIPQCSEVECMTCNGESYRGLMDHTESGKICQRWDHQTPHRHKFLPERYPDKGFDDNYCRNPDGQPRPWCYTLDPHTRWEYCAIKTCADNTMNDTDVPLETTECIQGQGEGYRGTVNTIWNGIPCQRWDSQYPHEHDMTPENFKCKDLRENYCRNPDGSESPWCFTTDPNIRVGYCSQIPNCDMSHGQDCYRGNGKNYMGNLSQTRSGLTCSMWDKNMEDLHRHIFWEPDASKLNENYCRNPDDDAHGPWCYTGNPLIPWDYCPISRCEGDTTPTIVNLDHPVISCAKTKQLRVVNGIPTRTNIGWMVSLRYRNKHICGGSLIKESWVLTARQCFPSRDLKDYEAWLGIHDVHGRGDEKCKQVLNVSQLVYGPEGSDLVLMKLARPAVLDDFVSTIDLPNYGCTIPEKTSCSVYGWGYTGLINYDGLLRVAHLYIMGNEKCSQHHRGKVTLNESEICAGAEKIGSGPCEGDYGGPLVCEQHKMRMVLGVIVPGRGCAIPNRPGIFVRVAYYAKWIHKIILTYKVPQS

Row | Protein | percent of plasminogen zymogen cleaved after 0.5 h (40 nM t-PA, SDS-PAGE) (Lys-plasminogen, P00747) | enzyme concentration achieving complete conversion of 125I-labelled pro-HGF into two-chain HGF (4 h, 37° C., SDS-PAGE) [1]
1 | B1 | t-PA efficiently processed plasminogen with about 50% of zymogen already cleaved after 0.5 h | –
2 | B2 | – | both enzymes achieving complete conversion of pro-HGF at a concentration of 4-13 nM
3 | VQLSPDLLATLPEPASPGRQACGRRHKKRTFLRPR [HGFA (hepatocyte growth factor activator) comprising residues Val373-Arg407] | – | both enzymes achieving complete conversion of pro-HGF at a concentration of 4-13 nM
